Source: the domain aggregation screens of Martell et al. (2025)

Assay: soluble fraction after stress (log2 fold change); higher = more stays soluble; pooled small domains, quantitative proteomics
Details: stress: 50 degC
In short: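 The measure of aggregation propensity here is the base-two logarithm of the fold change in the soluble amount of each protein after stress. A higher value means more of that protein stays in solution. Stress was applied at 50°C to pooled libraries of small protein domains, read out by high-throughput quantitative proteomics.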
For “HMKEGGGYGQLRLKEAAIQHAFDLQNALQFIAERGYQAHENTTLKEAANALNLKPIELLELLKSSQ”, the “soluble fraction (log2)” value was 0.281.
With “HMHEAILNQIRNEELMLYIGELSDAQQDVILLKYFHQMTFKEIAESFSIPISTVKTRHTAALKKLSTLWK” the “soluble fraction (log2)” value was -0.16.
With “HMSSHNIALDQDVVVTQLKGKVYLVAADGSQKQLAEGDILPKDAVLITPEGASFKGGNQTFTLS” the “soluble fraction (log2)” value was 0.17.
With “HMLQKVELSDNEKFIFDSLQKEQKMALLRLKELVNLSNKAWDVSVKNLTKQGLVKVTKIDEELLIEI” the “soluble fraction (log2)” value was -0.949.
For “HMDSILMPGVVNKELREALAILKNEGIGWADPEYASSTVTRNYVISTDPVEGIELAPGQKVRLVVSLGPKP”, the “soluble fraction (log2)” value was -0.00706.
In the case of “HMDEWKRKELWDAIARLPKIQRMVVTMRTTENLPYKEIAKIMNISENSAKVNYHHAVEALKIFF”, the “soluble fraction (log2)” value is reported as -2.66.
For “HMPSSQQVMRRLATVGPDKTLEELQRQHDAHLRKYGEFNDFRGERQQMRQEMERIKEAKQGTGPYAHLMG”, the “soluble fraction (log2)” value was 0.0233.
In the case of “HMYYNQGILKSGASVYGEPGITSSHRLEIPSGSFVDIVQEKDEWVYYEKNHVNHGWVLRENIYIPSL”, the “soluble fraction (log2)” value is reported as 0.0681.
With “HMTANPSTEEIMARVEAIPLPIKRLPPGQIVQAQTVAATVLRSNPGLDLAKAWKLAYATVTGQE” the “soluble fraction (log2)” value was -0.0416.
With “HMDYNYLVFVTNTGPRSIAVEDLEMTVSDGKLVVSSGADGETFDLSTLTKMYFSDAAVVSINDV” the “soluble fraction (log2)” value was -0.996.
In the case of “HMDDKVGKVFNYVQEKILTGEWDIGDKITPEISLSKELGVSRSVVREAIKKFVALNILSRTQGGGTYVNNL”, the “soluble fraction (log2)” value is reported as -0.515.
For “HMKFKDYYAALGIDRNADLEQIKKAYRKLARQYHPDVSKAPDAEARFKDAAEAYATLKNPEKRAAYDELGS”, the “soluble fraction (log2)” value was 0.062.
With “HMSKYGIAYSEVLEILKHIPIEDYNKIPRNEIELFETYADKDFTFNYDSSKTLEEQNVSNITKGIIIL” the “soluble fraction (log2)” value was -0.103.
In the case of “HMTFPAILRELLEKHPQTGKRTTLKELGEAVGTRQQSISLYRNGDTQPSPDILVRIAAFFGVSVDYLL”, the “soluble fraction (log2)” value is reported as -0.419.
For “HMAVSSHAVKQRIRSLIQAEDPAAPLSDEALRLALSALGVDVSRRVIAKYRAELNIPSSSQRKK”, the “soluble fraction (log2)” value was 0.045.
In the case of “HMTAQLAAQERTHALDMFMGGYKFSSKPAENGVRAEFEKKNFTLEDGKFLGGDEFMKSLMENDDYKGAFV”, the “soluble fraction (log2)” value is reported as 0.375.
With “HMLPGVPVVAGKTQSAATRILKAAGYAVSVVREEAFDGVTGTVLRTSPEAGSPLAPGSRVTLVVLQVV” the “soluble fraction (log2)” value was -0.27.
With “HMNAEGLIGREAVALTAVDAHGGRVRLGGEEWSARLSKENGGVSRLSVGDPVRVTDIDGAIAVVAP” the “soluble fraction (log2)” value was 0.187.
With “HMVVLPGEVLRINVIQEGKEHGQGVGYMDDGTMVVIENGREFIGEYMEVNVTKVLQTAAGRMIFGRVD” the “soluble fraction (log2)” value was -0.526.
In the case of “HMQQNYREMHKVKKGETLFGIARRYEITVDQLIKANPDMNAVGYELKKGDYIFIPYPDGQKP”, the “soluble fraction (log2)” value is reported as -0.13.
For “HMFGEKEFYQWIGKTAGEKFSGLPAAVIKSLYKYWREYNLSEEDIMGFIRQTELLPKRTPLDVELFFEK”, the “soluble fraction (log2)” value was -0.456.
In the case of “HMLINPLDILRNFNLSLYDDSRDSASNKEIDEIFESIKTNNSHIFSTLKAYRIPLPIASLIIKKIIKITLE”, the “soluble fraction (log2)” value is reported as -0.534.
In the case of “HMTNISDYILEEYYKNVYPNDLNTKRIVIPNKYEEYAGKYTYITIARMVTYEHDAKKALKVLHQQAT”, the “soluble fraction (log2)” value is reported as -0.287.
In the case of “HMDFTPDQIARLDDIISRYKDKPGGLIPVLEEAQVALEYLPIGVQKRIAKGLNLPLSRVYGVVTFYSFFTM”, the “soluble fraction (log2)” value is reported as -0.0911.
With “HMQTKSDMVYHRVREDIVNGVFAPGERLLISAVAKQYGVSEIPVREAFRVLSQEGFLKTRPNSGFVVS” the “soluble fraction (log2)” value was 0.0933.
For “HMKKYIEIYNYYKQLIESEQLKSGDKMPSVRKATKIFNVSKTTVQNAYFDLQADGYIIAAPKSGYYVTEM”, the “soluble fraction (log2)” value was -0.295.
With “HMASALDVALNDFAEMRKKMRKPLTDRALALTLSELEKLAPGNDEKKIAILNQSIQRGWQGVFPLK” the “soluble fraction (log2)” value was -0.162.
With “HMVTDSGEIEKLVDEVIDNNPDQVQQFREGKQQVLSYLVGQAMKLSRGKANPNQVNQFLRDKL” the “soluble fraction (log2)” value was 0.291.
With “HMSDQIQQIAERIAGLRDIAGYSVEELARELGISAEEYKRYESGEVDIPIGFLYKLANKYNVELTAILT” the “soluble fraction (log2)” value was -0.0876.
In the case of “HMRPTAWEQVSRHIDQHGSIGNTEVRKAMETENVLAASKQIKKWLEQGLLIILNPTAGTRARRYSKPNM”, the “soluble fraction (log2)” value is reported as -0.287.
For “HMFLTPLEETRLAIEEVVIAKNIAIDLFPRESAIRKQQHELIYHYHLKGLTVGTEKNKRLRIFPRGY”, the “soluble fraction (log2)” value was -0.000251.
In the case of “HMQNVFARKNLTSVSVDKLGEEEILLFKQSFESKNLTSSEALRDLSKKGMSEAELRKLKVRLTQL”, the “soluble fraction (log2)” value is reported as -0.074.
For “HMVVADFQNYTVKPKENLYSLTKTSGLSQEELVALNPELKNGVQEGMVIKLPAAVKLMAQPE”, the “soluble fraction (log2)” value was 0.15.
In the case of “HMGIGSTLTDGVRVYASDDEIVVNAPAESDVRIFNAGGAQLYAGRVADVRVAVAKGLYVVTVDGRSTKITV”, the “soluble fraction (log2)” value is reported as 0.00295.
With “HMIEGEQVRLLRLLERQEGGMLPLGDKSPASDILLLTGMSKKTFKMAVGALYKAQMITMTPTSIKLVK” the “soluble fraction (log2)” value was -0.684.
With “HMGRSTQVPGVEKMTYSQAVQLLHDHGFRVDIRDSLYRDDIKPGHVIEQFPKAKSIVKPGRKIFLYINAV” the “soluble fraction (log2)” value was -1.32.
In the case of “HMGAVGISQKVTSLETAVLGKNFAKDPLIDRVARLEQTVLPKQAEANASLSLPERVSKLLEKVPIAAG”, the “soluble fraction (log2)” value is reported as 0.223.
For “HMDAYLPETVQKLLDVMDFDVPYSAAQLMEKLGLKSRASFRKLYLLPALEKNLIAMGVPDKPTSRNQTYIR”, the “soluble fraction (log2)” value was -0.417.
In the case of “HMPDKIDSAAQGILDKLIRNDGFMAVTDKSPPEAIYKLFGVSKKVFKQAIGSLYKNRLITIEDAGLRIIPQ”, the “soluble fraction (log2)” value is reported as -0.0609.
In the case of “HMNFTMERLYTKELTSEDIDEIKKELNSMGYTEGVEFNIIKGDKTSFIMAERQLKAKMLSHLSDLGLPRGA”, the “soluble fraction (log2)” value is reported as -0.152.
For “HMNTKHVFIIEQDDEKKRLDIFLVEKLQDSRSFLKKGIVEGWVKVNESVVKPNYKLKQKDQITVIIPP”, the “soluble fraction (log2)” value was -0.278.
With “HMTTQVNTVKIQLANGYEMTVLTSKTNVKEILEDNNIILENNEKVTPNIDEEISSNKTIKITDKSN” the “soluble fraction (log2)” value was 0.146.
In the case of “HMQRFIHITVSDVHQATRLLEEEMQLTNYSVAENNAIKIFEFTYEPQEINHLFGKNGIEVSSLFIGS”, the “soluble fraction (log2)” value is reported as -0.134.
For “HMKSAIGEEKAENFAFADLGMDPLSAEGVRTEFGFEQGQFVYKVYFTADGTEYEYWIKASDGSVVKKGMDL”, the “soluble fraction (log2)” value was -0.891.
With “HMKTPRKVFTVLIRNTEYDVYDIDGKEHQGYNDTPKTWWLYHSERLPEGMIPPIDSDSWKPYSVGT” the “soluble fraction (log2)” value was -0.831.
For “HMHPDHRTATVPDAAAGRRFDAVLAELFPQFSRSKLTTWIKSGEVLLNGEVPRPRDAVVGGETVSLNVVL”, the “soluble fraction (log2)” value was -0.275.
With “HMLTSAQLAEIRQAVRAGQASVVEDLLKNGASPNFRMENGDTGFTYAVRADTPQVAEALLKSGKL” the “soluble fraction (log2)” value was -0.0678.
In the case of “HMVLVKFEWTPPDARILVDDHPVEARDKEMELPEGTHHVQALAPRGSGYESTVTDIEVRQGMDPVRIAL”, the “soluble fraction (log2)” value is reported as -0.182.
For “HMKSAIKQNILLYLSNKGVTSYEFYKISGVTRGILQQSNGISEDNIAKFLAYAPDVNIEWLLTGKGDMLKH”, the “soluble fraction (log2)” value was -1.32.
For “HMLSEKELLELLNRAKSNYNGITKKGIEAIALKYQGYSNVEIANLYHVKANHISAWISRARSRLKADY”, the “soluble fraction (log2)” value was 0.193.
In the case of “HMKRTLLLEGRTIPYELTQKPVKNINIRVHADGSVRVSAGPWVSPEAVDAVLRQRSAFLLRALDQFAAQAP”, the “soluble fraction (log2)” value is reported as -0.996.
For “HMLGVLEYYNNGQKKSERTFKGGMQIYTEWYENGQMKAEERKWIDQLGSLKFLNLLSTEWDENGNEISRME”, the “soluble fraction (log2)” value was -1.34.
With “HMKPSNRSYPTALRMEVIGIIRERYADFGPTLAGEKLAELHGIHLGRETIRQWMMAAGLWKDRR” the “soluble fraction (log2)” value was -0.825.
For “HMLMRKAEVGVESLNLRHGPGTQYKVLEILPGGKSLHYLAEPRRGWVRVTTEEGTTGWTFLKFLKPE”, the “soluble fraction (log2)” value was -1.96.
In the case of “HMVKEVKVPDVEGLTTEEAIKELKKYGLAYTTKSEENTDIEEGKVIRTEPKKGSTKVKGSTVTIIESSG”, the “soluble fraction (log2)” value is reported as -0.169.
With “HMHDAKAEIIRLSALLTEYQRSYYIDGHSQVSDLEYDRLFDRLVALETSHPELREADSPTQRV” the “soluble fraction (log2)” value was -0.855.
For “HMGDFLLQVDFPPALLEMLPEGKRQAAIGVLSHDPRPAYQRTPGRVYGLNFAGHNIRFAVSENLLTVLEV”, the “soluble fraction (log2)” value was -2.08.
In the case of “HMEPVFSDPARQTLYQEVMELPAKYRVPLYLYYYEGYKVDEVGELLGLNASTVQTRLARARAKLKIQL”, the “soluble fraction (log2)” value is reported as -0.627.
With “HMNNWYESSIKSLVEEYFREHGFSVVFDSSEFWDVFIEKYHKQIPSSQIALFDQVAAEARSYAFNKK” the “soluble fraction (log2)” value was 0.116.
For “HMAAQLAHVPAVTGRPLAEAQRILADNRLNAQVTQQPVAEPKLDGVVIAQKITEGTRTMRGATVPLIVGKY”, the “soluble fraction (log2)” value was 0.128.
For “HMIPTDPNGDLIKILYTSDQINELYARAKLNDVEDLFLDWTKNVLGESNFEETGPTKNEYLIPQ”, the “soluble fraction (log2)” value was -0.149.
With “HMKQENRLKILRKEKGLTQTKLANEIGVSKRTIIAWENDERQIKPDKAQQLADYFGVKEGYLLGYTNN” the “soluble fraction (log2)” value was 0.132.
In the case of “HMDYQYILVDVKDRIATVTINRPEYSNAFARESYYEIADAMNTLGARDDVGVIVITGAGKHFSAGGDIKRF”, the “soluble fraction (log2)” value is reported as -0.534.
In the case of “HMNSEAVQNVIDKISALPDDITAKAKSQIEEARAAYEALSDSEKARVTNYSTLVAAEKKLASVVKD”, the “soluble fraction (log2)” value is reported as 0.325.
For “HMPDYYAILEVERTADAKTIKAAYRKLALAYHPDRNPGDQAAEERFKQINEAYAVLSDPEKRARYDRYGSV”, the “soluble fraction (log2)” value was -0.31.
For “HMSLLTPLEEARIVIEELIIPQKLTLDLLPQNSQIRKLQHEIINHYRLKGISIGDGKNRRVRIYS”, the “soluble fraction (log2)” value was -0.133.
For “HMDRADIDAVDAEWVRATMERLGLRAKHIESHTGISKSTLSILLNGHRPLTRWHKIAFYYLFKHIEF”, the “soluble fraction (log2)” value was -2.68.
With “HMVSKTEAMAVFIADKLQEGMVPANEILELYKGMQLSDRTIRNAKKQLGIVSIRKDGQWYWSL” the “soluble fraction (log2)” value was -1.19.
